Stoichiometry N data for one substance are collected here from publication PMC7448930.

The assay deals with HCoV-19 fusion core (HR1 and HR2 linked with a peptide linker) (HCoV-19). In words: crystal structure; HR1 and HR2 linked on one chain by a peptide linker; 1.5 Å; one HR1/HR2 complex in the asymmetric unit, trimer by symmetry operations.

The term stoichiometry N denotes a count of units in the complex or per binding partner.

As to “HCoV-19 fusion core (HR1 and HR2 linked with a peptide linker) (domain or fragment)”, the stoichiometry N came to 3.
